Patent publication US20150276760A1 (INSERM INSTITUT NATIONAL DE LA SANTE ET DE LA RECHERCHE …, published 2015)

Assays:
Assay in all cases: Flag/HA immunopurification of MAML1-F/H from SupT1 nuclear extracts, DMSO or GSI (500 nM, 8 hours), western blot (FIG. 2D)
PHF8 = target: T1, PHF8 (human, UniProt Q9UPP1 1-1060, limits assumed)
T1 construct: also called endogenous PHF8; histone demethylase PHF8

AF4p12 = target: T2, AF4p12 (human, UniProt O94915 2-3013)
T2 construct: also called FRYL

PB1 = target: T3, PB1 (human, UniProt Q86U86 1-1689, limits assumed)
T3 construct: also called PBAF subunit PB1

LSD1 = LSD1 (human, UniProt O60341 1-852)
BRG1 = target: T4, BRG1 (human, UniProt P51532 1-1647)
T4 construct: also called endogenous BRG1; PBAF subunit BRG1

Measured: binding result

T2 sequence (O94915 2-3013 limits assumed): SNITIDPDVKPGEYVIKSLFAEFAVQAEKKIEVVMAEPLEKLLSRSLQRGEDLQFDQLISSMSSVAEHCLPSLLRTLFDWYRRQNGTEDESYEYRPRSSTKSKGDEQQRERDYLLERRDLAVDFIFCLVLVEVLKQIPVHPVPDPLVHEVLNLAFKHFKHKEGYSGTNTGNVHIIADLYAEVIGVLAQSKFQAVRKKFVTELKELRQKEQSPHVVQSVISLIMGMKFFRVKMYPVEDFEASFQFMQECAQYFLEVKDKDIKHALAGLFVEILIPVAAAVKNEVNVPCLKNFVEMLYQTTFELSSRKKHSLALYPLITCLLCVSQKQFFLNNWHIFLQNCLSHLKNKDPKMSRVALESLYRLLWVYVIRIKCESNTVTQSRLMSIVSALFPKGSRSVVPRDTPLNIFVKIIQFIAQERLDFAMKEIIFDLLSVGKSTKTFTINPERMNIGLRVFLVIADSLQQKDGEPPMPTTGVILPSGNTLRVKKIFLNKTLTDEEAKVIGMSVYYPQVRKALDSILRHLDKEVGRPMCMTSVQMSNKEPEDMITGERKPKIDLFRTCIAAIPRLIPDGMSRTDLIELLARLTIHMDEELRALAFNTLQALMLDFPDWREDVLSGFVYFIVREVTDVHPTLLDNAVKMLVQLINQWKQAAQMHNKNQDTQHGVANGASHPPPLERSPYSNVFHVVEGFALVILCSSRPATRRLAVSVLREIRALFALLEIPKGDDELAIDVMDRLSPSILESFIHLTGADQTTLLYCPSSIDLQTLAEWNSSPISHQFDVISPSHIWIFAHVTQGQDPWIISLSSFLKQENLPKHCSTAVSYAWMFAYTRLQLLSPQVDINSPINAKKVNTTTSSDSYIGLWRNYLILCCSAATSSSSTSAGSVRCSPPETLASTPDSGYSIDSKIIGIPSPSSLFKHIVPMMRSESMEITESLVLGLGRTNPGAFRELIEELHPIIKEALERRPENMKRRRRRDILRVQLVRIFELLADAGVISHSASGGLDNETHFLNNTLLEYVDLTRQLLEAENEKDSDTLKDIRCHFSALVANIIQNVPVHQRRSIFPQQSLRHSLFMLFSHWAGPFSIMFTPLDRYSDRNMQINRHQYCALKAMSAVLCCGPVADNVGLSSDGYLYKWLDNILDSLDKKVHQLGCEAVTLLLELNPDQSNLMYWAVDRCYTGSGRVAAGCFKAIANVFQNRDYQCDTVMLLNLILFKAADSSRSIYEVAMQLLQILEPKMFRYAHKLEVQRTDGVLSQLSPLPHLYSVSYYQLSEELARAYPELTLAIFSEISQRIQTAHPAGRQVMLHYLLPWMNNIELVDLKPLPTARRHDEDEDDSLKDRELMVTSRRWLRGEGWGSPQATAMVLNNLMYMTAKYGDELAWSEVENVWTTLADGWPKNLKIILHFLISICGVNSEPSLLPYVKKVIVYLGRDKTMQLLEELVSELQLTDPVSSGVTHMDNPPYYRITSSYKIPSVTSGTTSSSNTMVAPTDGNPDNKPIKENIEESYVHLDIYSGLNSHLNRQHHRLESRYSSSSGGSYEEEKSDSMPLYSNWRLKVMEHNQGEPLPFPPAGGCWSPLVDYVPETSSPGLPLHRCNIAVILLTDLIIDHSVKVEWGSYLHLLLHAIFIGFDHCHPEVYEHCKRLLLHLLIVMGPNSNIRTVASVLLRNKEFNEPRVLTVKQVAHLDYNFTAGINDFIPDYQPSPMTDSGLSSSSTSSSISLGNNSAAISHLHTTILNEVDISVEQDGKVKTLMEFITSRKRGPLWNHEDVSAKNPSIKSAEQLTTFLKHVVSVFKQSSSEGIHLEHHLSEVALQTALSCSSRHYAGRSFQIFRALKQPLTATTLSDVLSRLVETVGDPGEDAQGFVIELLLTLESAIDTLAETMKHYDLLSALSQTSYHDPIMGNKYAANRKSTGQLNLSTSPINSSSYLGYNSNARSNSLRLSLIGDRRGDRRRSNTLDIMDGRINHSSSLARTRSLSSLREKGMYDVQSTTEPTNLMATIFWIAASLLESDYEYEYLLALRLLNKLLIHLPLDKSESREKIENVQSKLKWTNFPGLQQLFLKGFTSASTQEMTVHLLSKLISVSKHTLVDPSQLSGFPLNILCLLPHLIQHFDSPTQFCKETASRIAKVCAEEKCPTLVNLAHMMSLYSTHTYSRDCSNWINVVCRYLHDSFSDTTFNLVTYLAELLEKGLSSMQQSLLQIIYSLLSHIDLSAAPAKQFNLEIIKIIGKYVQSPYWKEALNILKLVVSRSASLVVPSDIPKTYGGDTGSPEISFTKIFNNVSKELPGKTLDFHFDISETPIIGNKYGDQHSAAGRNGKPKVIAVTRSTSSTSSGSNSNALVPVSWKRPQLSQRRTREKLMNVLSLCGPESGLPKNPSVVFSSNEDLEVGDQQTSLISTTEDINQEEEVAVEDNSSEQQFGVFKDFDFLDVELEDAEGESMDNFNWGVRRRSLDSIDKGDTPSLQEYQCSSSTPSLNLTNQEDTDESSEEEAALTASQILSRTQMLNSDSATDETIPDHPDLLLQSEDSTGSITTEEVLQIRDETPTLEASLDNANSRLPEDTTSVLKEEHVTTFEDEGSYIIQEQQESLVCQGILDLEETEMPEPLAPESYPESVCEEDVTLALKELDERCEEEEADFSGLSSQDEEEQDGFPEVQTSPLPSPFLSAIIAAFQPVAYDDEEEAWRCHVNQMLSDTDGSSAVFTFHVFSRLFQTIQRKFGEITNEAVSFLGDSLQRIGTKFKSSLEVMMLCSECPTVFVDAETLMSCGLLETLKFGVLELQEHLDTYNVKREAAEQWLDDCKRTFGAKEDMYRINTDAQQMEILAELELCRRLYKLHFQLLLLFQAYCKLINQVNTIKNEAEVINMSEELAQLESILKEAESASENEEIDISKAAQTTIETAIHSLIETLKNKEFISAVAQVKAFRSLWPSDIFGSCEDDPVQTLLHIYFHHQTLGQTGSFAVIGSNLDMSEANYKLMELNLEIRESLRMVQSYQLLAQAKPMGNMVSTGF
T1 sequence (Q9UPP1 whole entry): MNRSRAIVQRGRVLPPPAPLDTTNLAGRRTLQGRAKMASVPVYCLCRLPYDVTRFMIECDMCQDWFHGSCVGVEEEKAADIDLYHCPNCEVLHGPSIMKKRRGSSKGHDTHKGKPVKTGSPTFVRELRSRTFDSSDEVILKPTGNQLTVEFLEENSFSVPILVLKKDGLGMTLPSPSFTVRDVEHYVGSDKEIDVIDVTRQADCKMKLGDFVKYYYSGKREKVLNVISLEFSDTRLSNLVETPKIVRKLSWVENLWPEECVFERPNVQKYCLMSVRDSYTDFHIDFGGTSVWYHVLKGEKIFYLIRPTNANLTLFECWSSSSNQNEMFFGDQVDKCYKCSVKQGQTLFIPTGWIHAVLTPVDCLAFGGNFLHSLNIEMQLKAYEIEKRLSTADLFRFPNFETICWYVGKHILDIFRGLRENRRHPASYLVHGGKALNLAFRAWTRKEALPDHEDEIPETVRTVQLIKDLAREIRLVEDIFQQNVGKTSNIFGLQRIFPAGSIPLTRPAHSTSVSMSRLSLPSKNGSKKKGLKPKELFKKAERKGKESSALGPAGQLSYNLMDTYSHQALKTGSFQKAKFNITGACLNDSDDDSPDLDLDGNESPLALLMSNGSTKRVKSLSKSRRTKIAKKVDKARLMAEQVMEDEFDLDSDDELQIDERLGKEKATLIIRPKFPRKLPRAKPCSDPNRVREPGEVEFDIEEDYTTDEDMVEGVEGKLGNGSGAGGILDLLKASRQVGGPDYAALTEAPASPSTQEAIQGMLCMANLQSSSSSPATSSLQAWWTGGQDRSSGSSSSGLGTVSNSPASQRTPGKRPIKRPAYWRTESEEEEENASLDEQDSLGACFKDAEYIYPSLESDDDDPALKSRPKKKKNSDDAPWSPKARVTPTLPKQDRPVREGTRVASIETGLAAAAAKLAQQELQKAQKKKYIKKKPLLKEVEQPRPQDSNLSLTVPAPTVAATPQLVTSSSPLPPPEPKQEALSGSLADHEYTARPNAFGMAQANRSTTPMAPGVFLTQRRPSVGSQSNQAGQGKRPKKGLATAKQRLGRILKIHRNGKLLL

B1: Flag and HA-tagged MAML1 (MAML1-F/H) (other, human, UniProt Q92585 1-1016, looked up)
chain: MVLPTCPMAEFALPRHSAVMERLRRRIELCRRHHSTCEARYEAVSPERLELERQHTFALHQRCIQAKAKRAGKHRQPPAATAPAPAAPAPRLDAADGPEHGRPATHLHDTVKRNLDSATSPQNGDQQNGYGDLFPGHKKTRREAPLGVAISSNGLPPASPLGQSDKPSGADALQSSGKHSLGLDSLNKKRLADSSLHLNGGSNPSESFPLSLNKELKQEPVEDLPCMITGTVGSISQSNLMPDLNLNEQEWKELIEELNRSVPDEDMKDLFNEDFEEKKDPESSGSATQTPLAQDINIKTEFSPAAFEQEQLGSPQVRAGSAGQTFLGPSSAPVSTDSPSLGGSQTLFHTSGQPRADNPSPNLMPASAQAQNAQRALAGVVLPSQGPGGASELSSAHQLQQIAAKQKREQMLQNPQQATPAPAPGQMSTWQQTGPSHSSLDVPYPMEKPASPSSYKQDFTNSKLLMMPSVNKSSPRPGGPYLQPSHVNLLSHQPPSNLNQNSANNQGSVLDYGNTKPLSHYKADCGQGSPGSGQSKPALMAYLPQQLSHISHEQNSLFLMKPKPGNMPFRSLVPPGQEQNPSSVPVQAQATSVGTQPPAVSVASSHNSSPYLSSQQQAAVMKQHQLLLDQQKQREQQQKHLQQQQFLQRQQHLLAEQEKQQFQRHLTRPPPQYQDPTQGSFPQQVGQFTGSSAAVPGMNTLGPSNSSCPRVFPQAGNLMPMGPGHASVSSLPTNSGQQDRGVAQFPGSQNMPQSSLYGMASGITQIVAQPPPQATNGHAHIPRQTNVGQNTSVSAAYGQNSLGSSGLSQQHNKGTLNPGLTKPPVPRVSPAMGGQNSSWQHQGMPNLSGQTPGNSNVSPFTAASSFHMQQQAHLKMSSPQFSQAVPNRPMAPMSSAAAVGSLLPPVSAQQRTSAPAPAPPPTAPQQGLPGLSPAGPELGAFSQSPASQMGGRAGLHCTQAYPVRTAGQELPFAYSGQPGGSGLSSVAGHTDLIDSLLKNRTSEEWMSDLDDLLGSQ
notes: Stably expressed in SupT1; also called FLAG-HA tagged MAML1; not shown: Flag and HA tags (pOZ vector)
binds: all assays above
